Several values for one entry are separate records, joined by “and”; a condition that tells them apart may be missing. Equal entries are not always repeated. Where two headings read alike, the source gives them in different places. No end group written: not given here.
Legend:
[1] = Cyclic voltammetry of peptides and copper-peptide complexes; format: physicochemical; settings: for potential peaks in cyclic voltammogram: 500 μM peptide in 10 mM KCl, scan rates 0.2, 0.1, 0.05 V/s; for redox potential peak of the Cu2+ complex: 1 mM tripeptide, 1 mM CuCl2, 50 mM Tris/HCl (pH 7.4), 0.1 M NaClO4, glassy carbon, 0.3 V/s
[2] = target: T1, Botrytis cinerea cognate pheromone receptor (BcSte2) (Botrytis cinerea); assay: cell-based or functional assay
T1 sequence: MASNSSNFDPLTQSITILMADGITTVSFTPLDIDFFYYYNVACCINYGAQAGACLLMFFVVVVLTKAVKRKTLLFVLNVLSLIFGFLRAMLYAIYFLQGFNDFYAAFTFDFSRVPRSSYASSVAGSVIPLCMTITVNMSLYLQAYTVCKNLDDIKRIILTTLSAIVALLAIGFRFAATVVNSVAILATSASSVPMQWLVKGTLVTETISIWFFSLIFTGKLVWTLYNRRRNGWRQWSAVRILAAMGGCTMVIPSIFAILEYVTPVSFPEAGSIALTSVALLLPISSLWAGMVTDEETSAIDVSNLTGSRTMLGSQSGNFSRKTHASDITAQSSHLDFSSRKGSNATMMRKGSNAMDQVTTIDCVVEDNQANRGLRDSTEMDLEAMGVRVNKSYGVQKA

[3] = target: T2, Candida albicans pheromone GPCR CaSte2 (Candida albicans); assay: cell-based or functional assay
T2 sequence: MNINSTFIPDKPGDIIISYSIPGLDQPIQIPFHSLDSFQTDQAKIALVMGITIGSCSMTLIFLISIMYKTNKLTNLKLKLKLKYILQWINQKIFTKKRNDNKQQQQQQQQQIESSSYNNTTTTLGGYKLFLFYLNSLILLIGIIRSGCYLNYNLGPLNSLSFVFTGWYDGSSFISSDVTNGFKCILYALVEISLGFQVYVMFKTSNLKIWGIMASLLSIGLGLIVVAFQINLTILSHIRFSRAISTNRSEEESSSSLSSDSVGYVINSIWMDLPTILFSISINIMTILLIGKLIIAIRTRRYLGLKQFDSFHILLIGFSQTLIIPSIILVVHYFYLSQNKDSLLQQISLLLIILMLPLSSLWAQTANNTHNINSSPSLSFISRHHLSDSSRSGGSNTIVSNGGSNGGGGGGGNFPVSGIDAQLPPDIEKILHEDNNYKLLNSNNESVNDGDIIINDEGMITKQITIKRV

[4] = target: T2, Candida albicans pheromone GPCR CaSte2 (Candida albicans); assay: cell-based or functional assay; parameters: EC50 compared to the native CaPep (orders of magnitude): unit not given beside the values
[5] = target: T3, Candida parapsilosis pheromone GPCR CpSte2 (native) (Candida parapsilosis); assay: cell-based or functional assay
T3 sequence: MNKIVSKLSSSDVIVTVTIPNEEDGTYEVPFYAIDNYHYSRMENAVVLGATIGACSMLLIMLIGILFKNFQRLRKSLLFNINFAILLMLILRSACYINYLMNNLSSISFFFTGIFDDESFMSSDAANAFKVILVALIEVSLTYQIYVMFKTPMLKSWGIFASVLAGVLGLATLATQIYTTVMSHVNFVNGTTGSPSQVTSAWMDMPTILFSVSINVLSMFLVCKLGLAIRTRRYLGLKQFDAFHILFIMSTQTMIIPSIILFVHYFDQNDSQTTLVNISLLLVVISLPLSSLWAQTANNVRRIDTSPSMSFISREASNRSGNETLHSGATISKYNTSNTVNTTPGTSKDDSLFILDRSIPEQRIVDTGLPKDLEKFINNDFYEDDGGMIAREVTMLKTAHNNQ

[6] = Metal-binding peptide absorbance scan; format: physicochemical
[7] = tested on: CpSte2; format: cell-based, Candida parapsilosis
[8] = target: SpSte2 with peptide proteases (Schizosaccharomyces pombe, UniProt Q00619); assay: SpSte2 biosensor dose-response with complementary and non-complementary proteases; format: cell-based
SpSte2 with peptide proteases, sequence (Q00619 whole entry): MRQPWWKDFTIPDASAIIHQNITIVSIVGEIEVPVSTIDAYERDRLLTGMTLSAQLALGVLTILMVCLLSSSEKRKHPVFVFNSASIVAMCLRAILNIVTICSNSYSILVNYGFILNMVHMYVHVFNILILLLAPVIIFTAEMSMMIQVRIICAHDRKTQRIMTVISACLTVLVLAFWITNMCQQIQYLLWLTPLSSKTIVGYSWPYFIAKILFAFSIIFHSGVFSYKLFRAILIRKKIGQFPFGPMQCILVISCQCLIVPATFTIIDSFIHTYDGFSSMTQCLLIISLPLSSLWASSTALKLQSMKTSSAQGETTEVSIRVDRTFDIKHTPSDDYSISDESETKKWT

[9] = tested on: SoSte2 with peptide proteases; format: cell-based, Schizosaccharomyces octosporus
[10] = tested on: A. clavatus GPCR; format: cell-based; settings: 40 μM peptide
Description: (§1) FIGS. 6A-6B show Aspergillus spp peptide cross-reactivity with Aspergillus spp GPCRs. […] The test concentration was set at 40 μM of a given peptide ligand.
(§2) Next, 13 GPCRs of all genome-mined Aspergillus species, including A. fumigatus from Example 1 and S. cerevisiae, along with inducible fluorescent readout were integrated into optimized parent strain. S. cerevisiae was included to test cross-reactivity with S. cerevisiae GPCR and peptide, since this peptide/GPCR pair will be used for building multi-cellular amplification communities. Then, each strain was activated with all Aspergillus peptides and S. cerevisiae peptide (FIG. 6A). Most of the Aspergillus GPCRs were responsive to at least one peptide, except A. terreus, A. flavus/A. oryzae (same GPCR sequence), A. niger and A. nidulans which were not responsive to any tested peptide. […] The majority of peptides have the same sequence (A. fischeri, A. fumigatus, A. lentulus, A. novofumigatus, A. udagawae and A. viridinutans) and the other active peptides differ only in the third amino acid position from N-terminus (A. clavatus, A. flavus and A. oryzae).

[11] = tested on: Aspergillus spp and S. cerevisiae GPCRs; format: cell-based; settings: 40 μM peptide
Description: as §1, §2

[12] = target: T4, Candida albicans pheromone GPCR CaSte2 (Candida albicans); assay: cell-based or functional assay
T4 chain: T2 sequence

[13] = 1 mM copper, 1 mM peptide, 50 mM Tris/HCl, NaClO4 buffer

With “AfPep: natural fungal peptide containing two cysteine residues (WCHLPGQGC; Synthetic: AfPep)” the “potential peaks in cyclic voltammogram” value [1] was “None of the tested peptides showed any unique and distinguishable potential peaks”.

“BcPep with its first cysteine changed into serine (peptide)” showed a maximal activation compared to the original BcPep [2] of 4 fold.

“BcPep with its second cysteine changed into serine (peptide)” showed a maximal activation compared to the original BcPep [2] of 4 fold.

For CaPep9A10A (peptide), the LogEC50 [3] was -4.7 log M and -4.6 log M, the Top [3] was 570 A.U. and 510 A.U and the EC50 compared to the native CaPep (orders of magnitude) [4] was 2.

With CaPep10A (peptide) the LogEC50 [3] was -4.6 log M and -4.2 log M, the Top [3] was 180 A.U. and 98 A.U and the EC50 compared to the native CaPep (orders of magnitude) [4] was 2.

For CaPep11A (peptide), the Top [3] was 180 A.U. and 120 A.U and the decrease in maximal activation compared to the native CaPep [4] was 50%.

In the case of CaPep12A13A (peptide), the LogEC50 [3] is reported as -4.8 log M and -4.5 log M, the Top [3] is reported as 170 A.U and the EC50 compared to the native CaPep (orders of magnitude) [4] is reported as 2.

For CaPep12A (peptide), the LogEC50 [3] was -5.3 log M and -5 log M, the Top [3] was 580 A.U. and 540 A.U and the EC50 compared to the native CaPep (orders of magnitude) [4] was 2.

“Candida parapsilosis cognate peptide (CpPep)” gave an EC50, mCherry, yMJ194 [5] of 3 nM, an EC50, mCherry, yTC453 [5] of 9 nM and a maximal activation, mCherry, yMJ194 [5] of 250 A.U. It also gave a maximal activation, mCherry, yTC453 [5] of 3300 A.U.

For GHK, the “absorbance maxima of copper complexes” value [6, 13] was 620 nm and the “absorbance peaks of nickel complexes” value ([6]; nickel complexes) was “did not show absorbance peaks”.

For “GWIGRCGVPGSSC [BcomPep, Baudoinia compniacensis mating peptide]”, the “potential peaks in cyclic voltammogram” value [1] was “None of the tested peptides showed any unique and distinguishable potential peaks”.

In the case of His-Ala-His, the “redox potential peak of the Cu2+ complex” value [1] is reported as 1.1 V.

In the case of His-His-Trp, the “redox potential peak of the Cu2+ complex” value [1] is reported as 0.8 V, the “absorbance maxima of copper complexes” value [6, 13] is reported as 620 nm and the “absorbance peaks of nickel complexes” value ([6]; nickel complexes) is reported as “did not show absorbance peaks”.

In the case of KKH, the “absorbance maxima of copper complexes” value [6, 13] is reported as 620 nm.

With KPHWTTYGYYEPQ [CpPep] the basal expression ([7]; optimized strain yTC453) was about 0 A.U, the EC50 ([7]; yMJ194, natural pathway) was about 3 nM and the maximal activation ([7]; yMJ194, natural pathway) was about 250 A.U. The EC50 ([7]; yTC453, optimized) was about 9 nM and the maximal activation ([7]; yTC453, optimized) was ~3,300 A.U.

For PHGGGWGQ, the “absorbance maxima of copper complexes” value [6] was 620 nm and the “absorbance peaks of nickel complexes” value [6] was “did not show absorbance peaks”.

In the case of TYADFLRAYQSWNTFVNPDRPNL [SpPep], the EC50 [8] is reported as over 100000 nM, the “cleavage by ScBar1 and CaBar1” value ([8]; ScBar1, CaBar1) is reported as “did not cleave” and the “shift of apparent EC50 by non-complementary proteases” value ([8]; SjSxa2 and SoSxa2) is reported as “between half and one order of magnitude”. The “response with complementary protease” value ([8]; SpSxa2, within measured concentration range) was “practically completely attenuated the response”.

With TYEDFLRVYKNWWSFQNPDRPDL [SoPep] the “cleavage by ScBar1 and CaBar1” value [9] was “did not cleave”, the “shift of apparent EC50 by non-complementary proteases” value [9] was “between half and one order of magnitude” and the “shift of apparent EC50 towards higher concentration by complementary protease” value [9] was “one and a half orders of magnitude”.

With WCALPGQGC [A. oryzae peptide] the “response of A. clavatus GPCR” value [10] was “strongest response”.

In the case of WCELPGQGC [A. clavatus peptide], the “response of A. clavatus GPCR” value [10] is reported as “strongest response”.

With “WCRFAGRIC (SEQ ID NO: 1) or WCRFRGQVC [A. nidulans peptide]” the “activation of tested GPCRs” value [11] was “did not activate any tested GPCR”.

For WCVLPGQPC [A. niger peptide], the “activation of tested GPCRs” value [11] was “did not activate any tested GPCR”.

With GARLTNFGYFEPG (modifications not checked) [CaPep2A] the EC50, ymTurquoise2, strain with the protease CaBar1 [12] was 40 nM, the EC50, ymTurquoise2, strain without the protease [12] was 50 nM and the LogEC50 [12] was -7.4 log M and -6.9 log M. The Top [12] was 460 A.U. and 430 A.U.

With GFRLTNFGYFEPA (modifications not checked) [CaPep13A] the EC50, lycopene readout, strains preincubated, +CaBar1 [12] was 1000 nM, the EC50, lycopene readout, strains preincubated, -CaBar1 [12] was 80 nM and the Top [12] was 820 A.U. and 590 A.U.

— patent US20240368664A1, “LIVE YEAST BIOSENSORS AND METHODS OF USE THEREOF” (priority 2021, published 2024)
